The record followed here is US20110166062A1 (INDIANA UNIVERSITY RESEARCH AND TECHNOLOGY, published 2011).

Bridges are numbered along the chain shown (N, C = ends). Where no end group is shown, it is not given here.

Holding throughout (assay): cell-based or functional assay
One assay deals with GLP-1 receptor (UniProt P43220 24-463, limits assumed).
The target of the next assay is T1, GIP receptor (UniProt P48546 22-466).
T1 sequence (looked up): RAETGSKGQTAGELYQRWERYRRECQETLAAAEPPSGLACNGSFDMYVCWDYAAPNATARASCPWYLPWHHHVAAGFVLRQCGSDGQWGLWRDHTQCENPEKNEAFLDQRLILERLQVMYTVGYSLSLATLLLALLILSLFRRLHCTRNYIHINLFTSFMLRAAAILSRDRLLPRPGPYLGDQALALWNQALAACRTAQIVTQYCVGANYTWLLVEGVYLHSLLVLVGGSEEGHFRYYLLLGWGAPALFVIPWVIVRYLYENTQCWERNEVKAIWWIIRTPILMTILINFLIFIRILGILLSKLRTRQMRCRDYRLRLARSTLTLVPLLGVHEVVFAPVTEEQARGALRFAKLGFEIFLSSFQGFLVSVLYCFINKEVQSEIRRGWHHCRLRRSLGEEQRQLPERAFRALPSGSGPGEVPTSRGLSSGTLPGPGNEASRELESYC

In the next assay the target is glucagon receptor (UniProt P47871 26-477, limits assumed).
Chain of glucagon receptor (P47871 26-477 limits assumed): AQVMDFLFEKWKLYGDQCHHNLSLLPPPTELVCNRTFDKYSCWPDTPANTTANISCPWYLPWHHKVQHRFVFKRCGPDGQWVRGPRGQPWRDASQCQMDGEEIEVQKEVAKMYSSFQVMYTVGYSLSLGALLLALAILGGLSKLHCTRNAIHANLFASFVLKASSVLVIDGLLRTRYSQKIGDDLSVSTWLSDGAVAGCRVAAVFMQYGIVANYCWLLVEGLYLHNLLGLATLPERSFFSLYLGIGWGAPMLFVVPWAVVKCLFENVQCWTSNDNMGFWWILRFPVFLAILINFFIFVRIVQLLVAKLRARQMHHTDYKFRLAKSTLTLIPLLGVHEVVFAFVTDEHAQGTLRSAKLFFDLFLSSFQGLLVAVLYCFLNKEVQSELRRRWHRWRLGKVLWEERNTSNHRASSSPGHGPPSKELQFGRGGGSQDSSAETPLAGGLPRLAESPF

B1: mt-115 (peptide)
peptide: HSQGTFTSDYSKYLDEIHQKDFVNWLLAGGPSSGAPPPS-NH2
modifications: lactam 16-20; N-terminus assumed
SMILES: CC[C@H](C)[C@@H]1NC(=O)[C@@H](NC(=O)[C@H](CC(=O)O)NC(=O)[C@H](CC(C)C)NC(=O)[C@H](Cc2ccc(O)cc2)NC(=O)[C@H](CCCCN)NC(=O)[C@H](CO)NC(=O)[C@H](Cc2ccc(O)cc2)NC(=O)[C@H](CC(=O)O)NC(=O)[C@H](CO)NC(=O)[C@@H](NC(=O)[C@H](Cc2ccccc2)NC(=O)[C@@H](NC(=O)CNC(=O)[C@H](CCC(N)=O)NC(=O)[C@H](CO)NC(=O)[C@@H](N)Cc2c[nH]cn2)[C@@H](C)O)[C@@H](C)O)CCC(=O)NCCCC[C@@H](C(=O)N[C@@H](CC(=O)O)C(=O)N[C@@H](Cc2ccccc2)C(=O)N[C@H](C(=O)N[C@@H](CC(N)=O)C(=O)N[C@@H](Cc2c[nH]c3ccccc23)C(=O)N[C@@H](CC(C)C)C(=O)N[C@@H](CC(C)C)C(=O)N[C@@H](C)C(=O)NCC(=O)NCC(=O)N2CCC[C@H]2C(=O)N[C@@H](CO)C(=O)N[C@@H](CO)C(=O)NCC(=O)N[C@@H](C)C(=O)N2CCC[C@H]2C(=O)N2CCC[C@H]2C(=O)N2CCC[C@H]2C(=O)N[C@@H](CO)C(N)=O)C(C)C)NC(=O)[C@H](CCC(N)=O)NC(=O)[C@H](Cc2c[nH]cn2)NC1=O
A word on the EC50: it is the concentration needed to bring the measured effect to its halfway point. Low readings indicate higher potency in that assay, high ones lower potency in that assay. For the molecule B1, the concentration giving a half-maximal response (EC50) with GLP-1 receptor is 0.15 nM; with GIP receptor it was 3.58 nM; in the assay with glucagon receptor it was 0.44 nM. Moreover, the relative activity with GLP-1 receptor amounted to 20%; with GIP receptor, 1.31%; in the assay with glucagon receptor, 11.4%.

B2: mt-108 (peptide)
peptide: HSQGTFISDYSKALDEIHQKEFIAWLMNT-NH2
modifications: lactam 16-20; N-terminus assumed
SMILES: CC[C@H](C)[C@H](NC(=O)[C@H](Cc1ccccc1)NC(=O)[C@H](CCC(=O)O)NC(=O)[C@@H]1CCCCNC(=O)CC[C@H](NC(=O)[C@H](CC(=O)O)NC(=O)[C@H](CC(C)C)NC(=O)[C@H](C)NC(=O)[C@H](CCCCN)NC(=O)[C@H](CO)NC(=O)[C@H](Cc2ccc(O)cc2)NC(=O)[C@H](CC(=O)O)NC(=O)[C@H](CO)NC(=O)[C@@H](NC(=O)[C@H](Cc2ccccc2)NC(=O)[C@@H](NC(=O)CNC(=O)[C@H](CCC(N)=O)NC(=O)[C@H](CO)NC(=O)[C@@H](N)Cc2c[nH]cn2)[C@@H](C)O)[C@@H](C)CC)C(=O)N[C@@H]([C@@H](C)CC)C(=O)N[C@@H](Cc2c[nH]cn2)C(=O)N[C@@H](CCC(N)=O)C(=O)N1)C(=O)N[C@@H](C)C(=O)N[C@@H](Cc1c[nH]c2ccccc12)C(=O)N[C@@H](CC(C)C)C(=O)N[C@@H](CCSC)C(=O)N[C@@H](CC(N)=O)C(=O)N[C@H](C(N)=O)[C@@H](C)O
On to B2, for which the “EC50” value in the assay with GLP-1 receptor turned out to be 0.32 nM; with GIP receptor, 4.78 nM; with glucagon receptor, 0.19 nM. The values for the relative activity with GLP-1 receptor, with GIP receptor and in the assay with glucagon receptor were 12.5%, 0.52% and 68.4%, respectively.

B3: mt-109 (peptide)
peptide: YSQGTFTSDYSKYLDEIHQKDFVNWLLAQ-NH2
B3: the half-maximal effective concentration (EC50) with GLP-1 receptor came to 3.86 nM; in the assay with GIP receptor, 0.658 nM; in the assay with glucagon receptor it was 0.13 nM. Moreover, the relative activity amounted to 0.78% in the assay with GLP-1 receptor, 6.99% with GIP receptor and 76.9% in the assay with glucagon receptor.

B4: mt-118 (peptide)
peptide: YSQGTFTSDYSKYLDEIHQKEFVNWLLAQ-NH2
Regarding B4, the “EC50” value in the assay with GLP-1 receptor was 1.28 nM; in the assay with GIP receptor, 0.736 nM; in the assay with glucagon receptor, 0.04 nM. Moreover, the results for the relative activity with GLP-1 receptor, in the assay with GIP receptor and in the assay with glucagon receptor were 2.34%, 6.39% and 125%, respectively.

B5: mt-111 (peptide)
peptide: HSQGTFTSDYSKYLDEIHQKDFVNWLLAQ-NH2
modifications: lactam 16-20; N-terminus assumed
SMILES: CC[C@H](C)[C@@H]1NC(=O)[C@@H](NC(=O)[C@H](CC(=O)O)NC(=O)[C@H](CC(C)C)NC(=O)[C@H](Cc2ccc(O)cc2)NC(=O)[C@H](CCCCN)NC(=O)[C@H](CO)NC(=O)[C@H](Cc2ccc(O)cc2)NC(=O)[C@H](CC(=O)O)NC(=O)[C@H](CO)NC(=O)[C@@H](NC(=O)[C@H](Cc2ccccc2)NC(=O)[C@@H](NC(=O)CNC(=O)[C@H](CCC(N)=O)NC(=O)[C@H](CO)NC(=O)[C@@H](N)Cc2c[nH]cn2)[C@@H](C)O)[C@@H](C)O)CCC(=O)NCCCC[C@@H](C(=O)N[C@@H](CC(=O)O)C(=O)N[C@@H](Cc2ccccc2)C(=O)N[C@H](C(=O)N[C@@H](CC(N)=O)C(=O)N[C@@H](Cc2c[nH]c3ccccc23)C(=O)N[C@@H](CC(C)C)C(=O)N[C@@H](CC(C)C)C(=O)N[C@@H](C)C(=O)N[C@@H](CCC(N)=O)C(N)=O)C(C)C)NC(=O)[C@H](CCC(N)=O)NC(=O)[C@H](Cc2c[nH]cn2)NC1=O
For B5, the 50% effective concentration (EC50) with GLP-1 receptor amounted to 0.66 nM; with GIP receptor, 6.26 nM; with glucagon receptor it was 0.27 nM. Further, the relative activity was determined as 10.6% with GLP-1 receptor, 0.78% in the assay with GIP receptor and 85.2% with glucagon receptor.

B6: mt-116 (peptide)
peptide: YSQGTFTSDYSKYLDEIHQKDFVNWLLAGGPSSGAPPPS-NH2
For the molecule B6, the “EC50” value with GLP-1 receptor turned out to be 3.8 nM; with GIP receptor it was 0.617 nM; with glucagon receptor, 0.787 nM. Further, the results for the relative activity in the assay with GLP-1 receptor, with GIP receptor and with glucagon receptor were 1.07%, 7.62% and 18.7%, respectively.

B7: mt-110 (peptide)
peptide: YSQGTFTSDYSIYLDEIHQKDFVNWLLAQ-NH2
modifications: lactam 16-20; N-terminus assumed
SMILES: CC[C@H](C)[C@H](NC(=O)[C@H](CO)NC(=O)[C@H](Cc1ccc(O)cc1)NC(=O)[C@H](CC(=O)O)NC(=O)[C@H](CO)NC(=O)[C@@H](NC(=O)[C@H](Cc1ccccc1)NC(=O)[C@@H](NC(=O)CNC(=O)[C@H](CCC(N)=O)NC(=O)[C@H](CO)NC(=O)[C@@H](N)Cc1ccc(O)cc1)[C@@H](C)O)[C@@H](C)O)C(=O)N[C@@H](Cc1ccc(O)cc1)C(=O)N[C@@H](CC(C)C)C(=O)N[C@@H](CC(=O)O)C(=O)N[C@H]1CCC(=O)NCCCC[C@@H](C(=O)N[C@@H](CC(=O)O)C(=O)N[C@@H](Cc2ccccc2)C(=O)N[C@H](C(=O)N[C@@H](CC(N)=O)C(=O)N[C@@H](Cc2c[nH]c3ccccc23)C(=O)N[C@@H](CC(C)C)C(=O)N[C@@H](CC(C)C)C(=O)N[C@@H](C)C(=O)N[C@@H](CCC(N)=O)C(N)=O)C(C)C)NC(=O)[C@H](CCC(N)=O)NC(=O)[C@H](Cc2c[nH]cn2)NC(=O)[C@H]([C@@H](C)CC)NC1=O
On to B7, for which the “EC50” value turned out to be 2.02 nM in the assay with GLP-1 receptor, 0.478 nM with GIP receptor and 0.43 nM with glucagon receptor. For the same molecule, the relative activity came to 1.49% with GLP-1 receptor, 9.62% in the assay with GIP receptor and 23.3% with glucagon receptor.
